Measured values as given in patent US20220315554A1, “COMPOUNDS COMPRISING A […] LIGAND AND USE THEREOF” (priority 2019, published 2022).
Bridge positions count the residues as written; N and C are the ends. * marks the point of attachment. tMeBn(DOTA-AET) = Cys-Cys bridge (thioethers) carrying DOTA-AET; tMeBn(DOTA-PP) = Cys-Cys bridge (thioethers) carrying DOTA-PP; Hexanoyl = CCCCCC(=O)*

Key:
Settings in all cases: remark: other sources report otherwise
[1] = target: T1, Potassium Channel hERG (human) (human), Q12809; assay: [3H] Dofetilide displacement, 10 uM compound
T1 chain: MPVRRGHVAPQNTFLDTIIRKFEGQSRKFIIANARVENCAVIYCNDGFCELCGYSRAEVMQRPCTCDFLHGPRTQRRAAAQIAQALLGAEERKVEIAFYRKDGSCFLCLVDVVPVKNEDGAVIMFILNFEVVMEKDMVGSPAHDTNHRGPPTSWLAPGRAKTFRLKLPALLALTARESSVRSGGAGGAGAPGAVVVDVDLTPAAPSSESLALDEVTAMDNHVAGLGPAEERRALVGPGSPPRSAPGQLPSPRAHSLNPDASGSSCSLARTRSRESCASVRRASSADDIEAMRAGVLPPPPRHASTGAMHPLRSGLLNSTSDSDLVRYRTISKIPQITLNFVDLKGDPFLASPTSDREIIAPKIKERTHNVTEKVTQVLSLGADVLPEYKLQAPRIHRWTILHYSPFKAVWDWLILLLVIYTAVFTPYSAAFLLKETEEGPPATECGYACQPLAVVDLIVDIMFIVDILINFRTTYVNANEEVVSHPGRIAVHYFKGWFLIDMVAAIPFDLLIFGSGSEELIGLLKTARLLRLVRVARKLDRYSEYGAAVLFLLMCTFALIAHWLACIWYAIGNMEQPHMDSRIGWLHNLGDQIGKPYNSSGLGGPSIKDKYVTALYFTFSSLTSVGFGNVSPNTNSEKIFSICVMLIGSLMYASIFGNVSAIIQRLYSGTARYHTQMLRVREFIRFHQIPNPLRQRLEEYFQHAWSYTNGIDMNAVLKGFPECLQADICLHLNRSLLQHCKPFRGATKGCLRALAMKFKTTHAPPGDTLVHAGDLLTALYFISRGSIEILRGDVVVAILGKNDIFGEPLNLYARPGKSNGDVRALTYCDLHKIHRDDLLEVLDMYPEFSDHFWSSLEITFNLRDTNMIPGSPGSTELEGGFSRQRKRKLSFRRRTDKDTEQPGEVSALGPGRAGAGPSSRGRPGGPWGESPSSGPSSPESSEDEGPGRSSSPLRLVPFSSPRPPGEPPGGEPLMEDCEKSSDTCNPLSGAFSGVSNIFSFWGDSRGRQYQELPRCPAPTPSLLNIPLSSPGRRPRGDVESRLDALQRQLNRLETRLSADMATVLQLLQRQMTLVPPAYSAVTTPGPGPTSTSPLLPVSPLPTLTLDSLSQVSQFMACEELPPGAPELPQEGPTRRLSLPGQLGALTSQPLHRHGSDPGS

[2] = target: T2, D1 (h) (human (printed (h))), P21728; assay: radioligand displacement, 10 uM compound
T2 chain: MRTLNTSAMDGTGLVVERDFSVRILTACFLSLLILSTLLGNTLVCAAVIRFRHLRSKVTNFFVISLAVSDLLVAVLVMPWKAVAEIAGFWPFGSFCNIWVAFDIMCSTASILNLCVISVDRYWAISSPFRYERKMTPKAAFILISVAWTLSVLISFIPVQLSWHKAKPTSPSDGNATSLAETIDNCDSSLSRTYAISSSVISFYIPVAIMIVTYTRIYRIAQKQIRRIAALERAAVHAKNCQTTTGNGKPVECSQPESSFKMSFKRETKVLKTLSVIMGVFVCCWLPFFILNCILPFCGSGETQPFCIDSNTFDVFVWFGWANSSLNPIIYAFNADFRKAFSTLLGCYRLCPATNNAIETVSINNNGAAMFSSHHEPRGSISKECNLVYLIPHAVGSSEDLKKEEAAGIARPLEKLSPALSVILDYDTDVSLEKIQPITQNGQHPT

[3] = target: mu (MOP) (h) (human), P35372; assay: radioligand displacement, 10 uM compound
Sequence of mu (MOP) (h) (human), P35372 (P35372 whole entry): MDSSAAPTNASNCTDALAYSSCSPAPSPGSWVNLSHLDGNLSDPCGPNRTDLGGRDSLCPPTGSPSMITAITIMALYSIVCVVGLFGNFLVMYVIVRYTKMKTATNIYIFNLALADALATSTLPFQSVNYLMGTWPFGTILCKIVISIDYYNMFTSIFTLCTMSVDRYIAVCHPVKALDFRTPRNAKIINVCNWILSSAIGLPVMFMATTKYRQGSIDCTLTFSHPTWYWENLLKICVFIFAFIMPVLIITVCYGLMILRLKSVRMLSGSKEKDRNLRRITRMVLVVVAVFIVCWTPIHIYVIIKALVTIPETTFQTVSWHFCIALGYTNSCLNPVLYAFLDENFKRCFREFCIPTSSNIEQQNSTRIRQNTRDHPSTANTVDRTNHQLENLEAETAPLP

Row | Binder | % Inhibition of Specific Binding [1] [%] | % Inhibition of Specific Binding [2] [%] | % Inhibition of Specific Binding [3] [%]
1 | Hexanoyl-CPPTQFCD-NH2 (linker 1-7 via tMeBn(DOTA-PP)) [Hex-[Cys(tMeBn(DOTA-PP))-Pro-Pro-Thr-Gln-Phe-Cys]-Asp-NH2 (3BP-3407)] | 2 | 0 | 2
2 | Hexanoyl-CPPTQFC-OH (linker 1-7 via tMeBn(DOTA-AET)) [Hex-[Cys(tMeBn(DOTA-AET))-Pro-Pro-Thr-Gln-Phe-Cys]-OH (3BP-3554)] | 6 | 7 | -10
